From article doi:10.1101/2020.07.19.210252

target: FXR1-GST (Homo sapiens, UniProt P51114 1-621); assay: EMSA
Sequence (P51114 whole entry): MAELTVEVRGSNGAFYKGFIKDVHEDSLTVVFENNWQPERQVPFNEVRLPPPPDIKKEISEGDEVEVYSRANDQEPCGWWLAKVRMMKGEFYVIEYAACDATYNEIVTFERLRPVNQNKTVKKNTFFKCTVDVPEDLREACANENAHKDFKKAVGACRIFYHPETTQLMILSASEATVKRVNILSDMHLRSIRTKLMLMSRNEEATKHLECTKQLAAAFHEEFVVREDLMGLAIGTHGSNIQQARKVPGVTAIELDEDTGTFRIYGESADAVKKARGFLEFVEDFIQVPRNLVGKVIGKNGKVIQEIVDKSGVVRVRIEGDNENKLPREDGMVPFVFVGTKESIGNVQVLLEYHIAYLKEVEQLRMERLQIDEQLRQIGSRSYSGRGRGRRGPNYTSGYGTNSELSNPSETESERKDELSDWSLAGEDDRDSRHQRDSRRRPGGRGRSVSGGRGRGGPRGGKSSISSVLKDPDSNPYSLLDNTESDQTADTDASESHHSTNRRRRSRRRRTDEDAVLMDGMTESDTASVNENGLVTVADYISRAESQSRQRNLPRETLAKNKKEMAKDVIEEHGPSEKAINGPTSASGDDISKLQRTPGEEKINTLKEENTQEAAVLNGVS

Binding result, binds:
UUGUGAUUUAUUUUG (ssRNA) [cMYC 3'UTR-ARE5]
UUUUUAUUUAAGUAC (ssRNA) [cMYC 3'UTR-ARE4]
GAAAGAUUUAGCCAU (ssRNA) [cMYC 3'UTR-ARE1]
UUUGUAUUUAAGAAU (ssRNA) [cMYC 3'UTR-ARE2]
